Data reported in paper PMC5605238.

T1: RecQ4 (Homo sapiens, UniProt O94761 1-1208)
T1 sequence: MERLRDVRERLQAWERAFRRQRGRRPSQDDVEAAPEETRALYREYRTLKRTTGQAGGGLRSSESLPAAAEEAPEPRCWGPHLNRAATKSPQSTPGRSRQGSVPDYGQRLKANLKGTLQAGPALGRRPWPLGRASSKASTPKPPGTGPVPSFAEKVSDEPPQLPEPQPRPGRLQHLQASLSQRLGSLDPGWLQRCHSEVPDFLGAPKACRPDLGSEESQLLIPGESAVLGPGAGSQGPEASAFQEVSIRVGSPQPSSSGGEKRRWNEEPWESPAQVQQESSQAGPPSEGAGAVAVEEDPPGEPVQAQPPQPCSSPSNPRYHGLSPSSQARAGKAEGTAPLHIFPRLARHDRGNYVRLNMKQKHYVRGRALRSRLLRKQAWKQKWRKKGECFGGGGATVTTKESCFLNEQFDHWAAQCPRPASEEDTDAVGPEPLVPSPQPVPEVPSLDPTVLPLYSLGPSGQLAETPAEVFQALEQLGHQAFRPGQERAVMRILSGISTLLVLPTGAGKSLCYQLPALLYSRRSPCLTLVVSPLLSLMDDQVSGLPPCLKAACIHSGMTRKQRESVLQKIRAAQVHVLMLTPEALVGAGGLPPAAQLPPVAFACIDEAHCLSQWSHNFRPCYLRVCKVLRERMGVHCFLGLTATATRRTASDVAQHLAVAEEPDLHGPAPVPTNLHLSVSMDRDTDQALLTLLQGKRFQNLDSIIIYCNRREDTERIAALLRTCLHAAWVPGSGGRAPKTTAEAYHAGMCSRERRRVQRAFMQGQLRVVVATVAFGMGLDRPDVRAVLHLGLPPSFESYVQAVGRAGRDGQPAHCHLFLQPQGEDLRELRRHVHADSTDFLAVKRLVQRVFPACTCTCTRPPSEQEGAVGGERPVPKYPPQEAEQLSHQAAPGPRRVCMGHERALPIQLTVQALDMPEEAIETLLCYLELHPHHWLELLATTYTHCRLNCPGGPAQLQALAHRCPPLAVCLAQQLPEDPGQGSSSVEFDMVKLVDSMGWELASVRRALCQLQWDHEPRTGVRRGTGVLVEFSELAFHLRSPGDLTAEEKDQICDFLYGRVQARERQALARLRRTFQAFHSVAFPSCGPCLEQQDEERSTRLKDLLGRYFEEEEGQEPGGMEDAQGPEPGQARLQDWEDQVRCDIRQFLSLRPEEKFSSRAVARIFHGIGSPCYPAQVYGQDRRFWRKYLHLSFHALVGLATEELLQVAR

T2: Hrq1 (Saccharomyces cerevisiae, UniProt Q05549 1-1077)
T2 sequence: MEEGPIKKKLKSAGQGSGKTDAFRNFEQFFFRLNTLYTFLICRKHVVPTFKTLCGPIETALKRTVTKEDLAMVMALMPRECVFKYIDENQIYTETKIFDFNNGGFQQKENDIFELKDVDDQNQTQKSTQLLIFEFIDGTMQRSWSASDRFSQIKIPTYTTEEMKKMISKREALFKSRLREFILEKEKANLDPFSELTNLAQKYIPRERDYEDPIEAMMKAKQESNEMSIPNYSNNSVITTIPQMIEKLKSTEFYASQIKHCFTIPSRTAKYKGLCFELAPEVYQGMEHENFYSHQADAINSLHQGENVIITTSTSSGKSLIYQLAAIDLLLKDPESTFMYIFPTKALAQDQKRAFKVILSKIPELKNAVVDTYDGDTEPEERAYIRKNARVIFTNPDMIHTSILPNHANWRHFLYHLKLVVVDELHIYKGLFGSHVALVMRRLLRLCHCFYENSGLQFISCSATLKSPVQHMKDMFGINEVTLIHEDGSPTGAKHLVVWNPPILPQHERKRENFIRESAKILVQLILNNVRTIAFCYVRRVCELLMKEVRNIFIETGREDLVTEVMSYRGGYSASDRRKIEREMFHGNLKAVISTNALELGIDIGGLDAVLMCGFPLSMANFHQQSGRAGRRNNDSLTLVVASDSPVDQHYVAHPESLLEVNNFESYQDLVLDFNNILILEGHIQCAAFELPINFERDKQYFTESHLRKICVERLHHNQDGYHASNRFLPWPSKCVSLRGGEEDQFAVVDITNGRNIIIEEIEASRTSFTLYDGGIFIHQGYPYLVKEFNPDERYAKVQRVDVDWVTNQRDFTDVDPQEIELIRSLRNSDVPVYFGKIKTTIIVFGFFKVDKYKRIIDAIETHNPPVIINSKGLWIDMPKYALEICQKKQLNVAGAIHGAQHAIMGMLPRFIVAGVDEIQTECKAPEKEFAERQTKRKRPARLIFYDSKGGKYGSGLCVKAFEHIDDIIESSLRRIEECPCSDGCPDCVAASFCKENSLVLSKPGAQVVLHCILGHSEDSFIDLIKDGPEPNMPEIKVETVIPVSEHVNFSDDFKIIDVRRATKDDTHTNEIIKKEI

B1: Holliday junction (HJ) (structured_DNA)
DNA 1: GACGCTGCCGAATTCTGGCTTGCTAGGACATCTTTGCCCACGTTGACCC
DNA 2: TGGGTCAACGTGGGCAAAGATGTCCTAGCAATGTAATCGTCTATGACGTT
DNA 3: CAACGTCATAGACGATTACATTGCTAGGACATGCTGTCTAGAGACTATCGA
DNA 4: ATCGATAGTCTCTAGACAGCATGTCCTAGCAAGCCAGAATTCGGCAGCGT
B2: Bubble (dsDNA)
DNA 1: GGTGAACCTGCAGGTGGGCGGCTGCTCATCGTAGGTTAGTTGGTAGAATTCGGCAGCGTC
DNA 2: GACGCTGCCGAATTCTAGGTTGATTGGATGCTACTCGTCGGCGCCACCTGCAGGTTCACC
B3: 25-nt Random Fork (dsDNA)
DNA 1: ACCGTTGTGCAACTGAGTGGACAACGTGTCACTCACATAGCGTTC
DNA 2: GAACGCTATGTGAGTGACACCAACAGGTGAGTCAACGTGTTGCCA
B4: 5' tail (dsDNA)
DNA 1: ACCGTTGTGCAACTGAGTGGACAACGTGTCACTCACATAGCGTTC
DNA 2: GAACGCTATGTGAGTGACAC
B5: 3' tail (dsDNA)
DNA 1: GAACGCTATGTGAGTGACACCAACAGGTGAGTCAACGTGTTGCCA
DNA 2: GTGTCACTCACATAGCGTTC
B6: G4 (structured_DNA)
DNA: AAAGGGGGAGCTGGGGTAGATGGGAATGTGAGGGCAACAGGTGAGTCAACGTGTTGCCA
B7: Poly(dT) Fork (dsDNA)
DNA 1: TTTTTTTTTTTTTTTTTTTTTTTTTGTGTCACTCACATAGCGTTC
DNA 2: GAACGCTATGTGAGTGACACTTTTTTTTTTTTTTTTTTTTTTTTT
B8: Yeast Tel Fork (Poly(TG1-3) Fork) (dsDNA)
DNA 1: GGTGTGGTGTGGGTGTGGTGTGGGTGTGTCACTCACATAGCGTTC
DNA 2: GAACGCTATGTGAGTGACACTGGGTGTGGTGTGGGTGTGGTGTGG
B9: Human Tel Fork (Poly(TTAGGG) Fork) (dsDNA)
DNA 1: TTAGGGTTAGGGTTAGGGTTAGGGTGTGTCACTCACATAGCGTTC
DNA 2: GAACGCTATGTGAGTGACACTTAGGGTTAGGGTTAGGGTTAGGGT
B10: D-loop (structured_DNA)
DNA 1: GGGTGAACCTGCAGGTGGGCGGCTGCTCATCGTAGGTTAGTGGTAGAATTCGGCAGCGTC
DNA 2: GACGCTGCCGAATTCTACCATGCCTTGCTAGGACATCTTTGCCCACCTGCAGGTTCACCC
DNA 3: TAAGAGCAAGATGTTCTATAAAAGATGTCCTAGCAAGGCA

Columns and labels:
RecQ4 = target: T1, RecQ4; experiment: EMSA
Hrq1 = target: T2, Hrq1; experiment: EMSA

| Binder | Kd (RecQ4) [nM] | Kd (Hrq1) [nM] |
| --- | --- | --- |
| B1 | 90.1 ± 23.4 | 79.2 ± 22.7 |
| B2 | 16.8 ± 2.3 | 36.1 ± 4.9 |
| B3 | 108 ± 32.5 |  |
| B4 | 102 ± 29.4 | 154 ± 44.6 |
| B5 | 21.8 ± 4.2 | 141 ± 59.4 |
| B6 | 12.3 ± 2.5 | 17.6 ± 2.2 |
| B7 | 50.9 ± 10.4 | 6.5 ± 0.5 |
| B8 | 18.5 ± 3.1 | 3.5 ± 0.4 |
| TTTTTTTTTTTTTTTTTTTTTTTTTTTTTTTTTTTTTTTT (ssDNA) [Poly(dT) 40mer ssDNA] | 2.38 ± 0.15 | 3.45 ± 0.19 |
| B9 | 39.7 ± 8.3 | 15.7 ± 1.7 |
| B10 | 12.6 ± 1.8 | 9.9 ± 0.7 |
